Assay results taken from IntAct's records for PubMed 15210731.

B1: Myosin light chain 1 (Saccharomyces cerevisiae), P53141 (parent)
chain: MSATRANKDIFTLFDKKGQGAIAKDSLGDYLRAIGYNPTNQLVQDIINADSSLRDASSLTLDQITGLIEVNEKELDATTKAKTEDFVKAFQVFDKESTGKVSVGDLRYMLTGLGEKLTDAEVDELLKGVEVDSNGEIDYKKFIEDVLRQ
partner: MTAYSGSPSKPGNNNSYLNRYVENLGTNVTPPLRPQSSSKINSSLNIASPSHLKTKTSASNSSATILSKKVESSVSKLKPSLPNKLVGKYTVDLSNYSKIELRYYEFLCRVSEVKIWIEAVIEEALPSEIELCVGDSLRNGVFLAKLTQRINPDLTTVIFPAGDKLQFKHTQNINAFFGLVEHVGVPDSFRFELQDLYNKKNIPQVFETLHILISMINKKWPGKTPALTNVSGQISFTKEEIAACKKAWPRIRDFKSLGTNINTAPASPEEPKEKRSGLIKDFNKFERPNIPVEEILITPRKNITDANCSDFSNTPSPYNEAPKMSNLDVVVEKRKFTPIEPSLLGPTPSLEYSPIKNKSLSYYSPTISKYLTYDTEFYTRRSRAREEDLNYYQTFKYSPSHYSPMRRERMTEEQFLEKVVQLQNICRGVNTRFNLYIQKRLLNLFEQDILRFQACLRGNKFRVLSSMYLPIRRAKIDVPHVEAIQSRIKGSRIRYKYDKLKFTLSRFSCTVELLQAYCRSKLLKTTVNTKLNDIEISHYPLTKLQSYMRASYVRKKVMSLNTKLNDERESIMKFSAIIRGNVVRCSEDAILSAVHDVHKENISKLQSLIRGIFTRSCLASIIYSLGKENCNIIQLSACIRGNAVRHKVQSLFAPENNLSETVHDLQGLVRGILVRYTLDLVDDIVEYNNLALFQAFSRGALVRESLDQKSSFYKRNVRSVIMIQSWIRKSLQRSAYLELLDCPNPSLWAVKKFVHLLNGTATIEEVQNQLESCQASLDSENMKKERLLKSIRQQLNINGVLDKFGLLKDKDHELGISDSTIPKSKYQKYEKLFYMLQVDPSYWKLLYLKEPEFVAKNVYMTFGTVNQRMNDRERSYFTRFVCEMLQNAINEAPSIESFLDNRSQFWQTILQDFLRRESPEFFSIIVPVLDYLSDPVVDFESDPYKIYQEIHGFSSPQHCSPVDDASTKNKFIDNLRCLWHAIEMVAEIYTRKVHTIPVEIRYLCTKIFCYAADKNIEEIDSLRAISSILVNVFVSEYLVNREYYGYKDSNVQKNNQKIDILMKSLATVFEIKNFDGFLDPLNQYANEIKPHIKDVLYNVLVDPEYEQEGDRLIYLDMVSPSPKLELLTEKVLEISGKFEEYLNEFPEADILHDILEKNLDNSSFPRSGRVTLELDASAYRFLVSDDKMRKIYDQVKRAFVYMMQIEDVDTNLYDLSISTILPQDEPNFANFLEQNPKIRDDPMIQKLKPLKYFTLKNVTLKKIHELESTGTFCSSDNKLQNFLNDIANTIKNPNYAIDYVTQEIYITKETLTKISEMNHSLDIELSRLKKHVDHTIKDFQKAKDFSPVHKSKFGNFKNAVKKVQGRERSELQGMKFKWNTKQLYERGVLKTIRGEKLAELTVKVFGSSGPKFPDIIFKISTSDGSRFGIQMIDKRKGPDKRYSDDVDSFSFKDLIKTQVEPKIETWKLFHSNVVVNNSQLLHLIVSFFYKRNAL
B2: Myosin-1 (Saccharomyces cerevisiae), P08964 (parent)
chain: MTGGQSCSSNMIVWIPDEKEVFVKGELMSTDINKNKFTGQEEQIGIVHPLDSTEVSNLVQVRISDVFPVNPSTFDKVENMSELTHLNEPSVLYNLEKRYDCDLIYTYSGLFLVAINPYHNLNLYSEDHINLYHNKHNRLSKSRLDENSHEKLPPHIFAIAEEAYENLLSEGKDQSILVTGESGAGKTENTKKILQYLASITSGSPSNIAPVSGSSIVESFEMKILQSNPILESFGNAQTVRNNNSSRFGKFIKIEFNEHGMINGAHIEWYLLEKSRIVHQNSKERNYHIFYQLLSGLDDSELKNLRLKSRNVKDYKILSNSNQDIIPGINDVENFKELLSALNIIGFSKDQIRWIFQVVAIILLIGNIEFVSDRAEQASFKNDVSAICSNLGVDEKDFQTAILRPRSKAGKEWVSQSKNSQQAKFILNALSRNLYERLFGYIVDMINKNLDHGSATLNYIGLLDIAGFEIFENNSFEQLCINYTNEKLQQFFNNHMFVLEQSEYLKENIQWDYIDYGKDLQLTIDLIESKGPPTGVLPLLDEEAVLPKSTDESFYSKLISTWDQNSSKFKRSRLKNGFILKHYAGDVEYTVEGWLSKNKDPLNDNLLSLLSSSQNDIISKLFQPEGEKSSSAGVEANISNQEVKKSARTSTFKTTSSRHREQQITLLNQLASTHPHFVRCIIPNNVKKVKTFNRRLILDQLRCNGVLEGIRLAREGYPNRIAFQEFFQRYRILYPENSTTTTFSSKLKASTKQNCEFLLTSLQLDTKVYKIGNTKLFFKAGVLADLEKQKDVKLNNIMIKLTATIRGYTVRKEITYHLQKLKKTRVIGNTFRLYNRLVKEDPWFNLFIRIKPLLTSSNDMTRTKKFNEQINKLKNDLQEMESKKKFLEEKNQKTVNELENTQDLLNQEKENLRKNESLLNRVKTSSETLQKQFDDLVSEKDEISREKLEVAQNLEEAHQKIQGLQETIREREATLEKLHSKNNELIKQISDLNCDISKEQSSQSLIKESKLKLENEIKRLKDVINSKEEEIKSFNDKLSSSEEDLDIKLVTLEKNCNIAMSRLQSLVTENSDLRSKNENFKKEKAALNNQLKNKESELLKMKEKIDNHKKELATFSKQRDDAVSEHGKITAELKETRIQLTEYKSNYQKIKEEYSNFQRETKEQEQKKRNSLVESLNDSKIKELEARLSQEISLNQYLNKRISGNSVETNISSTRRSTSYSDDPLDKEDIIKKYYDLQLAFTEITRNLENEIEEKKNLISRLRFTETRLASSSFEDQKIKAQMKKLKKLIQDMDPSIPLDSILNEPLDNCPDKESDINKLMLEVDYLKRQLDIETRAHYDAENAISALHSKFRKIQGESSLSSSDIYKLKFEASEERVKSLEDKLKTMPLRDRTNLPVGDIIKNRDSISKYEEEIRYYKLENYKLQEILNESNGKLSQLTLDLRQSKSKEALLSEQLDRLQKDLESTERQKELLSSTIKQQKQQFENCMDDLQGNELRLREHIHALKQAEEDVKNMASIIEKLKTQNKQKEKLIWEREMERNDSDMQLQETLLELKRVQDVKKILSDDLAHLKERLSAVEDRSQYTDEINRLKEELNCSLKAETNLKKEFATLKYKLETSTNDSEAKISDLLKQLDHYTKVVEMLNNEKDAISLAEKELYQKYEALNTECESLKGKIVSLTKIKQELESDLNQKTDALQISNAALSSSTQKNKEITEKIKYLEETLQLQMEQNSRNGELVKTLQASCNGYKDKFDDEKQKNIDLYEENQTLQKLNTDLQLQLKNLHERLSDTTEKNAWLSKIHELENMVSLETDLKYEEMKKNKSLERAVEELQTKNSQQTDVIELANKNRSEFEEATLKYEAQISDLEKYISQQELEMKKSIRDNSSYRDKVQEMAQEIEFWKSRYESTMIGSKNIDSNNAQSKIFS
partner: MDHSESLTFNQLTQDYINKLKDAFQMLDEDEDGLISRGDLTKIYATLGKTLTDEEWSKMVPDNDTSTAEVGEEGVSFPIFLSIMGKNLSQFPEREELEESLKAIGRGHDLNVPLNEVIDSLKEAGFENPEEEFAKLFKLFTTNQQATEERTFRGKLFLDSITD
B3: Myosin light chain 1 (Saccharomyces cerevisiae), P53141 (parent)
chain: B1 chain

Variants of: B1
Details: with iqg1_yeast IQG1, Q12280

Variant | effect of a mutation on the interaction
G114D | disrupting interaction strength
G135E | with no effect

Variants of: B2
Details: with mlc2_yeast MLC2, Q06580

Variant | effect of a mutation on the interaction
R806A | with no effect

Variants of: B3
Details: with myo2_yeast MYO2, P19524
myo2_yeast MYO2, P19524, sequence (P19524 whole entry): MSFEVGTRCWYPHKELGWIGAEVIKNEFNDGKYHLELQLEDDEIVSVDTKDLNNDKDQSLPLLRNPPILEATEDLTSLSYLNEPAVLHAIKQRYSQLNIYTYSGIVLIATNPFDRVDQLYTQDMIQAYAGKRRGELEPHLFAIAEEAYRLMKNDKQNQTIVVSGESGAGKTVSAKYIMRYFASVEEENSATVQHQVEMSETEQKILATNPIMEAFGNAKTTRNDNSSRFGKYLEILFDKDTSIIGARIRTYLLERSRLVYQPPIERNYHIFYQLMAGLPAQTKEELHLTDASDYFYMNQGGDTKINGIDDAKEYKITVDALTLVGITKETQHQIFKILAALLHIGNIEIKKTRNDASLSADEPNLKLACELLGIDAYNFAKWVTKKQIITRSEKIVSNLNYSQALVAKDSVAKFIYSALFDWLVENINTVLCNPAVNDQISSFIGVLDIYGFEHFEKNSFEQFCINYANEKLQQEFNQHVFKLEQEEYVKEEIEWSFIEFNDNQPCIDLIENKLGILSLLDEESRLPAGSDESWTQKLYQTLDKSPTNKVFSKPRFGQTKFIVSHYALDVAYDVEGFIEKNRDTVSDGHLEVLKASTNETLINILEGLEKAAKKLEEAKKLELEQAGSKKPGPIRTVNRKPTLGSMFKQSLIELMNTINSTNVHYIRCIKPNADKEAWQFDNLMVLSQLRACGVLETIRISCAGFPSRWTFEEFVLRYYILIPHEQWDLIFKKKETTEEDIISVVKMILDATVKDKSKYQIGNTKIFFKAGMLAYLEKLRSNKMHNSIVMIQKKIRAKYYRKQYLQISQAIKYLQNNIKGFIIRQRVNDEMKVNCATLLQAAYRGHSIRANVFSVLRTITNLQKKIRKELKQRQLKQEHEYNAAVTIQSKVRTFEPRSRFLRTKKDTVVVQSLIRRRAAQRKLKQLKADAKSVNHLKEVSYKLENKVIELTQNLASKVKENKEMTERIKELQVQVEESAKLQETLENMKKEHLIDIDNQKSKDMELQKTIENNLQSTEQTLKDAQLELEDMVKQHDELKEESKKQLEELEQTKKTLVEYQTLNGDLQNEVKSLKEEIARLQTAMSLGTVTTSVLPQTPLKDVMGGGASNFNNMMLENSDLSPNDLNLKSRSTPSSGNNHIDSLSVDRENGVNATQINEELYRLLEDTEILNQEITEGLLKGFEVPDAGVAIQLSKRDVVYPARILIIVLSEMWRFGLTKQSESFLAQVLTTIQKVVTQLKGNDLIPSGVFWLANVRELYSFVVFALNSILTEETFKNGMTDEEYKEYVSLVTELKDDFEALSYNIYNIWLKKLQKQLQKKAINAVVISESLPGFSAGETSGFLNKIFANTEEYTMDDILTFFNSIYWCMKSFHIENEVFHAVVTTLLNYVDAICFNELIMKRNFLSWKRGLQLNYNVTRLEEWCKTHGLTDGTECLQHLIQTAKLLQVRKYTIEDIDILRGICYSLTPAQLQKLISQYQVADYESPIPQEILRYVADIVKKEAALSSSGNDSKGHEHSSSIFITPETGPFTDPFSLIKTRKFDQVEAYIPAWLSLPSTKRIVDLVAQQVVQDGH

Variant | effect of a mutation on the interaction
G135E | with no effect
G114D | disrupting interaction strength

Variants of: B3
Details: with myo1_yeast MYO1, P08964

Variant | effect of a mutation on the interaction
G135E | decreasing interaction strength
G114D | decreasing interaction strength
